Laboratory results as given in patent publication US20150258192A1, “COMPOSITIONS AND METHODS FOR PREVENTING OR TREATING CHRONIC LUNG ALLOGRAFT DYSFUNCTION (CLAD) AND IDIOPATHIC PULMONARY FIBROSIS (IPF)” (priority 2014, published 2015).
No end group written: not given here.

Experiments:
Test in all cases: Kinase Profiling Assay
Type in all cases: biochemical
Settings in all cases: peptide 100 μM
TSSK2(h) = molecular target: T1, TSSK2(h) (Homo sapiens, UniProt Q96PF2)
T1 sequence (Q96PF2 1-358): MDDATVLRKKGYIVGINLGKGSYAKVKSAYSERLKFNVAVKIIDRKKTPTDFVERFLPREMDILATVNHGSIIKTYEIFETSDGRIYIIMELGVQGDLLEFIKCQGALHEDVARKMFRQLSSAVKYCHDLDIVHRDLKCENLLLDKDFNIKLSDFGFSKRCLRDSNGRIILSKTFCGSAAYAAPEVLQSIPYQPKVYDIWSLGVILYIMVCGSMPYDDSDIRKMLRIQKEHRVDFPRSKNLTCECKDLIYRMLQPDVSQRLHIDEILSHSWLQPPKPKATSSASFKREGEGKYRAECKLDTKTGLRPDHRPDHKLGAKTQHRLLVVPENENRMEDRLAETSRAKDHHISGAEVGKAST
Procedure, shortened: (§1)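 Duplicate wells; [radiolabeled] ATP phosphate onto cationic substrate; filter capture (negatively charged membrane); scintillation count; % of 100% activity control. Selectivity screen of MK2 peptide inhibitors, 266 human kinases.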

CDK5/p25(h) = CDK5/p25(h) (Homo sapiens, UniProt Q00535)
Chain of CDK5/p25(h) (Q00535 whole entry): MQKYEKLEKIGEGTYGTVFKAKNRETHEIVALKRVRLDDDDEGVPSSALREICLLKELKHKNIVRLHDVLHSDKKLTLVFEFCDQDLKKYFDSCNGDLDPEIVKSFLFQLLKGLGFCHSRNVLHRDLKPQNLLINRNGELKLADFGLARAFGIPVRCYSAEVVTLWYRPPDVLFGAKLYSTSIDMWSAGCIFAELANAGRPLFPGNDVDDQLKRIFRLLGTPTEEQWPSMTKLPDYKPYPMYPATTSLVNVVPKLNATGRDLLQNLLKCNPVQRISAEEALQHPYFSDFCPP
Chain of CDK5/p25(h) (Q15078 99-307 partner limits assumed): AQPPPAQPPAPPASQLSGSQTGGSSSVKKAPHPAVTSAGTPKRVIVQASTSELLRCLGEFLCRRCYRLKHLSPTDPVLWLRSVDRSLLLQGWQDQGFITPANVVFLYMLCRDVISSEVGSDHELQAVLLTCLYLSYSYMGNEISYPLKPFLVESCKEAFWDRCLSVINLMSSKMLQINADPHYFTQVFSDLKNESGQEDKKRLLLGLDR
Procedure, shortened: as §1

BrSK1(h) = molecular target: T2, BrSK1(h) (Homo sapiens, UniProt Q8TDC3)
T2 sequence (Q8TDC3 1-778): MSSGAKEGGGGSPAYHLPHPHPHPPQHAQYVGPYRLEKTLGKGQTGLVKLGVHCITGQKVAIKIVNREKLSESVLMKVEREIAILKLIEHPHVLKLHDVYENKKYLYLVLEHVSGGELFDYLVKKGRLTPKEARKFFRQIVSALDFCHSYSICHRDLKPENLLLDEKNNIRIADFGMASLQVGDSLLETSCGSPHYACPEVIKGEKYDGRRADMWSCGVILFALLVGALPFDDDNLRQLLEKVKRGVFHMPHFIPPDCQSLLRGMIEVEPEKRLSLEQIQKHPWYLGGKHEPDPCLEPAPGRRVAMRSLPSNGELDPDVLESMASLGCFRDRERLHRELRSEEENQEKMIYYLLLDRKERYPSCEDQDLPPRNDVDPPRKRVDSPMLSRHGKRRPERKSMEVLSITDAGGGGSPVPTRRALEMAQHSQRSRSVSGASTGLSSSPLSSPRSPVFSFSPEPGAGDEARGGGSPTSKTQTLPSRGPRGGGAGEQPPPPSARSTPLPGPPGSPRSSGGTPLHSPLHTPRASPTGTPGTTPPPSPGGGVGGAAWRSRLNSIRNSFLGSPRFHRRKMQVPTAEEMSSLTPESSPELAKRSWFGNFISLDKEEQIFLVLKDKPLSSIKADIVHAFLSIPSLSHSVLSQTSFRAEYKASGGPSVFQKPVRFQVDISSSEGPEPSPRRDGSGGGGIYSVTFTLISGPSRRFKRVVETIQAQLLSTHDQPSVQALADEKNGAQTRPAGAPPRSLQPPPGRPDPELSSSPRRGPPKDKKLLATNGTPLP
Procedure, shortened: as §1

PAK4(h) = molecular target: T3, PAK4(h) (Homo sapiens, UniProt O96013)
T3 construct: purchased Millipore
T3 sequence (O96013 whole entry): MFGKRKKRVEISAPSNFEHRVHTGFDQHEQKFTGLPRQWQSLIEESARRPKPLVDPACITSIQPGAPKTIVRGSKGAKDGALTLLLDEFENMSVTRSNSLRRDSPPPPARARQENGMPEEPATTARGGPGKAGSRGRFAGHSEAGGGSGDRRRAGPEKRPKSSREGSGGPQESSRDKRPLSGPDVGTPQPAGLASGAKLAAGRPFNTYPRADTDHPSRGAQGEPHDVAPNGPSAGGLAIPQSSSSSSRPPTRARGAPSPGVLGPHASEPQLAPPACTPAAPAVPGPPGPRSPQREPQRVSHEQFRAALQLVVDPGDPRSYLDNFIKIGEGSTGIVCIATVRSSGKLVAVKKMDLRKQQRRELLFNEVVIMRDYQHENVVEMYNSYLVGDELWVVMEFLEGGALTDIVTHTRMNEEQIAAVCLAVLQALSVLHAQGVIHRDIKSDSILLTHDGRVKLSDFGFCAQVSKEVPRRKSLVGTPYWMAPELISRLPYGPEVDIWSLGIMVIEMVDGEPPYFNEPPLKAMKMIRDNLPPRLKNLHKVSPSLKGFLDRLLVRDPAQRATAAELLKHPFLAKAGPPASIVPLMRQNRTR
Procedure, shortened: as §1

WNK2(h) = WNK2(h) (Homo sapiens, UniProt Q9Y3S1)
Chain of WNK2(h) (Q9Y3S1 whole entry): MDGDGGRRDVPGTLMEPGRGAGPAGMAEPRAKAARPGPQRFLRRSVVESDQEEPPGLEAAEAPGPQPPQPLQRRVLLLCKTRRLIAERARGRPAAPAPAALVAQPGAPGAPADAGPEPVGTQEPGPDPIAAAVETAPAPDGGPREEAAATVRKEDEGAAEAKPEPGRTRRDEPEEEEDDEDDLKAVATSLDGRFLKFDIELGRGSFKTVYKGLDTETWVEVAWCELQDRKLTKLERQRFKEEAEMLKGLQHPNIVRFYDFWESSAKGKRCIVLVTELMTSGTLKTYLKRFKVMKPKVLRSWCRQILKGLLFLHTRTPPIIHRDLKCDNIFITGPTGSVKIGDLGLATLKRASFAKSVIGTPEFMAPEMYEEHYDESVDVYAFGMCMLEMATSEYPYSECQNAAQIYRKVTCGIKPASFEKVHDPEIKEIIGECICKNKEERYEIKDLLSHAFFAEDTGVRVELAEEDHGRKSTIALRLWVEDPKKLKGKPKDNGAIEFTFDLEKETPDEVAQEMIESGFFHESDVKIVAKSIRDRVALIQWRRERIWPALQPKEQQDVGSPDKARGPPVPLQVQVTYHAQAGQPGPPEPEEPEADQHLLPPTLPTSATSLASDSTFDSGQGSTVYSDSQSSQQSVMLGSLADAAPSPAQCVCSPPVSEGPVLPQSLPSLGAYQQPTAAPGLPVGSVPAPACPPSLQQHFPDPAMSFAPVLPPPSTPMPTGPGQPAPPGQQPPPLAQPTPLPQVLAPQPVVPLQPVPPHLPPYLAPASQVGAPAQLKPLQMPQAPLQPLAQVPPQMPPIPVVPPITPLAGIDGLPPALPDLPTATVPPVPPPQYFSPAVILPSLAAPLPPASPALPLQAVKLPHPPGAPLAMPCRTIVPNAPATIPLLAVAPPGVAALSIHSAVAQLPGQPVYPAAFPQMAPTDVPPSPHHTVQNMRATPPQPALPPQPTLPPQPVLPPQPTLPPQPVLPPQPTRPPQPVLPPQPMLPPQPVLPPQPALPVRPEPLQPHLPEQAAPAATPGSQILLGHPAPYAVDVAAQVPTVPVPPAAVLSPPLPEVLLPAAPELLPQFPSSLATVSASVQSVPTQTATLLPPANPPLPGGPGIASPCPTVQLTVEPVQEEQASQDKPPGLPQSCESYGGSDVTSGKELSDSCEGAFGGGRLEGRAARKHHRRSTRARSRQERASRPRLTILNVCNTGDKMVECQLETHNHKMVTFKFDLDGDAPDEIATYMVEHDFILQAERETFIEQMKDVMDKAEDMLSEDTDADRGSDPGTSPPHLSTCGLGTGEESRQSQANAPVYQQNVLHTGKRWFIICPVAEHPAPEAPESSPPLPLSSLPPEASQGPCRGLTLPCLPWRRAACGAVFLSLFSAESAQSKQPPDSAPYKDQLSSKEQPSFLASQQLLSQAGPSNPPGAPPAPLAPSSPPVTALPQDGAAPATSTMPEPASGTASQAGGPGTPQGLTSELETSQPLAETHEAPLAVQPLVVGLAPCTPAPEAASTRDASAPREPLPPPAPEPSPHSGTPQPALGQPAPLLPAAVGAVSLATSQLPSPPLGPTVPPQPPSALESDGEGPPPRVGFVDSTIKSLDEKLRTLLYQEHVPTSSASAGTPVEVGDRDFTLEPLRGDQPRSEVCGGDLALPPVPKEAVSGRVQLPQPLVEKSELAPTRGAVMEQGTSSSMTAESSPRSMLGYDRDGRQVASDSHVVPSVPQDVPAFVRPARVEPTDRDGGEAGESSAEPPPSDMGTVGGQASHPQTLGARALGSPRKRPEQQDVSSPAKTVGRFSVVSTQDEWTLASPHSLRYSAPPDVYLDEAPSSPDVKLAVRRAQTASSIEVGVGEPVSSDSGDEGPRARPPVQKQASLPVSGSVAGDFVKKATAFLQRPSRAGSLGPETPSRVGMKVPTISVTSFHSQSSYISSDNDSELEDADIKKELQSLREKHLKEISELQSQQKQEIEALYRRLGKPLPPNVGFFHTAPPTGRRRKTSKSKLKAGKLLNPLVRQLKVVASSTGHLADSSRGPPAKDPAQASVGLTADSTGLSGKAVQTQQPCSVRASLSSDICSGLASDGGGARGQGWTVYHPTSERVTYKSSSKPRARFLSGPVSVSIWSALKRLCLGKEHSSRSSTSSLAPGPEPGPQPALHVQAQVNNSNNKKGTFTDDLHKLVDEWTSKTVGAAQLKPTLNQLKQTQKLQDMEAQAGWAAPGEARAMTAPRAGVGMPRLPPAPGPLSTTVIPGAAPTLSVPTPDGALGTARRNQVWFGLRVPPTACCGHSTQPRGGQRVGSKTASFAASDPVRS
Procedure, shortened: as §1

EphB4(h) = molecular target: T4, EphB4(h) (Homo sapiens, UniProt P54760)
T4 sequence (P54760 16-987): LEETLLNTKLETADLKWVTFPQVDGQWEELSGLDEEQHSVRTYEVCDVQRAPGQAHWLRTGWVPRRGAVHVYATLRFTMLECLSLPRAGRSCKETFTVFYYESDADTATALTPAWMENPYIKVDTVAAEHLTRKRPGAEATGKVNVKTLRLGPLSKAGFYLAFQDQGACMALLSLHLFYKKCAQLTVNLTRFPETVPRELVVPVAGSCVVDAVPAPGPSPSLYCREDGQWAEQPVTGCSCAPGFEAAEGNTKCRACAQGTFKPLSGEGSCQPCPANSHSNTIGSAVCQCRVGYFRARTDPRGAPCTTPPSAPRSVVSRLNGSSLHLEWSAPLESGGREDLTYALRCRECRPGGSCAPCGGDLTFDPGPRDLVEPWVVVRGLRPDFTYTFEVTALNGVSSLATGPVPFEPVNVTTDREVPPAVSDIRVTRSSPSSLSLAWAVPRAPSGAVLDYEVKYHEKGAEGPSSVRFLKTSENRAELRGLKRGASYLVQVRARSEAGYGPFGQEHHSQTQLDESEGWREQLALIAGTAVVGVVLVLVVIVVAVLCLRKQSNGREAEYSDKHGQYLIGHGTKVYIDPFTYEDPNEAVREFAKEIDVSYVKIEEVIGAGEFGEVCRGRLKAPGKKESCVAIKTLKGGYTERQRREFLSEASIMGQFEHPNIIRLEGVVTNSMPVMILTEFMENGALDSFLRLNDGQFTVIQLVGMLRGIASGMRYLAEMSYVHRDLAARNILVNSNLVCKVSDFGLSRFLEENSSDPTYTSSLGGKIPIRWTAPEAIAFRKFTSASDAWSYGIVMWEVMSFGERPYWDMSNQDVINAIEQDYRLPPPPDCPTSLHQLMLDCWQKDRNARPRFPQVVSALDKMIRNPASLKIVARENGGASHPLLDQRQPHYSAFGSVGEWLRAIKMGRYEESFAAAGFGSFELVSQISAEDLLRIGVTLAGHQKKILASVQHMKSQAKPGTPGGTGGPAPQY
Procedure, shortened: as §1

| Sequence | % activity (TSSK2(h)) [%] | % activity (CDK5/p25(h)) [%] | % activity (BrSK1(h)) [%] | % activity (PAK4(h)) [%] | % activity (WNK2(h)) [%] | % activity (EphB4(h)) [%] |
| --- | --- | --- | --- | --- | --- | --- |
| KAFAKLAARLYRKALARQLGVAA [MMI-0400] | 94 | 92 | 76 | 89 | 54 | 28 |
| FAKLAARLYRKALARQLGVAA [MMI-0300] | 98 | 89 | 67 | 94 | 64 | 44 |
| YARAAARQARAKALARQLGVAA [MMI-0100] |  |  | 100 | 92 | 95 | 62 |
| HRRIKAWLKKIKALARQLGVAA (Mammal) [MMI-0500] | 92 | 66 | 72 | 86 | 8 | 38 |
| YARAAARQARAKALNRQLGVA (Mammal) [MMI-0200] | 91 | 97 | 93 | 98 | 94 | 131 |
